Our source for the self-cleavage values is the RNAGym collection of RNA variant scans (doi:10.1093/nar/gkz1192).

The chains are these.
B1: CPEB3 Ribozyme (parent)
chain: UAACAGGGGGCCACAGCAGAAGCGUUCACGUCGCAGCCCCUGUCAGAUUCUGGUGAAUCUGCGAAUUCUGCUGUAUAUCUC

Variants of B1 are the subject of the series. The series is described as follows: self-cleavage, relative activity (ratio to wild type); higher = more cleavage; in vitro, sequencing. The method in brief: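 For each CPEB3 ribozyme variant, relative activity is its cleaved/total read fraction divided by the unmutated ribozyme's. Barcoded error-prone PCR libraries were transcribed by T7 RNA polymerase (5 hours, 37°C) and held in DNase I for 15 min before an EDTA stop, with cleavage occurring throughout. Template-switching reverse transcription and Illumina sequencing were used to read the RNAs. A 5-read minimum applied, and results are the mean of three batches.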
Consider G8U U31A, for which the self-cleavage stood at 0.18.

As to G8U U31C, the self-cleavage was determined as 0.11.

On to G9C C71G, for which the self-cleavage is 0.05.

With G9A U26G, the self-cleavage worked out at 0.07.

Take G9A U26A: the self-cleavage was determined as 0.29.

G9A U26C: the self-cleavage amounted to 0.21.

For the variant G9A A65U, the self-cleavage stood at 0.17.

For the variant G9A A65G, the self-cleavage turned out to be 0.22.

G8U C71G: the self-cleavage was determined as 0.07.

As to G8U A13G, the self-cleavage stood at 0.28.

G8U A13U: the self-cleavage was found to be 0.3.

Take G9C A21U: the self-cleavage is 0.23.

Turning to G8C A21G, the self-cleavage amounted to 0.06.

As to G8U A64G, the self-cleavage came to 0.2.

In the case of G8U A64C, the self-cleavage came out at 0.12.

As for G8U A64U, the self-cleavage is 0.08.

On to G8C U43C, for which the self-cleavage turned out to be 0.4.

Take G8U A47G: the self-cleavage came to 0.13.

Take G8C A18G: the self-cleavage is 0.27.

For the variant G8C A18U, the self-cleavage turned out to be 0.23.

In the case of G9C A15C, the self-cleavage worked out at 0.34.

Consider G9C A15U, for which the self-cleavage was 0.1.

In the case of G9C A15G, the self-cleavage is 0.39.

Consider G9C, for which the self-cleavage amounted to 0.24.

On to G9A, for which the self-cleavage worked out at 0.29.

G9U: the self-cleavage came to 0.24.

As to G9A U67C, the self-cleavage is 0.08.

As for G9A U67A, the self-cleavage worked out at 0.11.

With G9U C29U, the self-cleavage worked out at 0.13.

For G9C A20G, the self-cleavage was found to be 0.06.

Take G8U A35U: the self-cleavage was 0.27.

For the variant G8U G10A, the self-cleavage is 0.39.

With G8C G36C, the self-cleavage was 0.15.

For G9C A64G, the self-cleavage was 0.08.

As for G9C A64U, the self-cleavage is 0.23.

For G9A U48C, the self-cleavage came to 0.36.

G8U U49A: the self-cleavage was determined as 0.28.

In the case of G8U U49C, the self-cleavage came to 0.22.

Turning to G8C G52A, the self-cleavage was 0.31.

Take G8C A65G: the self-cleavage worked out at 0.38.

Consider G9U A47G, for which the self-cleavage amounted to 0.29.

Regarding G9A U31C, the self-cleavage came out at 0.29.

Consider G9A U31A, for which the self-cleavage is 0.16.

As to G9U A13G, the self-cleavage was found to be 0.24.

With G9A C17G, the self-cleavage came to 0.1.

Turning to G9A C17U, the self-cleavage was determined as 0.23.

Regarding G8U A75G, the self-cleavage was found to be 0.12.

As to G8U A75U, the self-cleavage was determined as 0.35.

G8U C32U: the self-cleavage was 0.14.

Turning to G8U G22A, the self-cleavage stood at 0.12.

Take G9A G73A: the self-cleavage is 0.47.

Consider G8C U31C, for which the self-cleavage stood at 0.38.

On to G8C U31G, for which the self-cleavage was 0.34.

As for G8C C32U, the self-cleavage worked out at 0.2.

For G9C A65G, the self-cleavage was 0.32.

With G8U G52U, the self-cleavage was determined as 0.21.

For the variant G8U G52A, the self-cleavage came out at 0.21.

Regarding G9A U72A, the self-cleavage is 0.23.

As for G9A U72C, the self-cleavage turned out to be 0.39.

In the case of G8U G19C, the self-cleavage is 0.23.

G9A U58A: the self-cleavage came out at 0.07.

On to G9A U58G, for which the self-cleavage is 0.08.

Turning to G9A U58C, the self-cleavage came to 0.25.

Consider G9C G52A, for which the self-cleavage worked out at 0.55.

Regarding G9A C37U, the self-cleavage worked out at 0.15.

Take G9U A28G: the self-cleavage amounted to 0.11.

With G9U A28U, the self-cleavage came out at 0.13.

Take G8C U78C: the self-cleavage is 0.07.

In the case of G8A U74C, the self-cleavage was found to be 0.35.

For G8A U74A, the self-cleavage is 0.25.

Consider G9C G30U, for which the self-cleavage is 0.22.

For G9C G30C, the self-cleavage came to 0.06.

Consider G9C G30A, for which the self-cleavage was 0.1.

In the case of G8C G73U, the self-cleavage worked out at 0.25.

Take G9A U74C: the self-cleavage turned out to be 0.6.

G8C U54C: the self-cleavage came to 0.44.

For G9C C79A, the self-cleavage came out at 0.58.

Regarding G8U C14U, the self-cleavage stood at 0.06.

Turning to G8U C59U, the self-cleavage is 0.1.

Take G8U U74G: the self-cleavage is 0.17.

Turning to G8U U74A, the self-cleavage was 0.41.

In the case of G8U A20G, the self-cleavage stood at 0.17.

Regarding G8U U60G, the self-cleavage worked out at 0.06.

G8U U60A: the self-cleavage was 0.07.

On to G8U U60C, for which the self-cleavage came to 0.17.

For the variant G8A U78C, the self-cleavage worked out at 0.35.

In the case of G8A U78A, the self-cleavage amounted to 0.37.

Turning to G9A A28G, the self-cleavage is 0.24.

Regarding G9A A28U, the self-cleavage came out at 0.22.

With G9A A28C, the self-cleavage is 0.2.

On to G9A G61A, for which the self-cleavage worked out at 0.06.

As to G9U A15G, the self-cleavage is 0.14.

Consider G9U A15U, for which the self-cleavage was 0.32.

G9U A15C: the self-cleavage is 0.36.

With G8C U66C, the self-cleavage is 0.41.

Regarding G8U G63A, the self-cleavage amounted to 0.07.

As to G8U U69C, the self-cleavage was determined as 0.09.

On to G8U U69A, for which the self-cleavage worked out at 0.12.

Take G9C U41C: the self-cleavage is 0.15.

Regarding G8C G55A, the self-cleavage was found to be 0.37.

With G9U C38A, the self-cleavage amounted to 1.09.

In the case of G9U A35G, the self-cleavage amounted to 0.33.

For G9U A35C, the self-cleavage is 0.14.

As for G9U A35U, the self-cleavage was 0.14.

Take G9A U43A: the self-cleavage came to 0.39.

In the case of G9A U43C, the self-cleavage was 0.29.

In the case of G9A U43G, the self-cleavage was 0.22.

Regarding G8A U54A, the self-cleavage was 0.08.

For G8A U54C, the self-cleavage came out at 0.14.

Take G9A A75G: the self-cleavage was 0.31.

Take G8U A56U: the self-cleavage amounted to 0.14.

With G8U G73C, the self-cleavage was 0.5.

In the case of G9A A57U, the self-cleavage amounted to 0.15.

On to G9A A57G, for which the self-cleavage was 0.22.

Consider G9C U54C, for which the self-cleavage worked out at 0.41.

For G9C A75G, the self-cleavage was 0.17.

With G9A U54C, the self-cleavage was 0.33.

Regarding G9A U54A, the self-cleavage is 0.13.

As for G8U A65U, the self-cleavage amounted to 0.43.

Regarding G8U A65G, the self-cleavage turned out to be 0.34.

In the case of G9A A45U, the self-cleavage was determined as 0.21.

Turning to G9A A45G, the self-cleavage was determined as 0.39.

For G8A U67A, the self-cleavage was 0.26.

Consider G8A U67C, for which the self-cleavage was 0.22.

In the case of G8A U67G, the self-cleavage is 0.48.

G9A U80A: the self-cleavage turned out to be 0.21.

On to G9A U80C, for which the self-cleavage was determined as 0.23.

For the variant G8U U78C, the self-cleavage was determined as 0.17.

For G8U U78A, the self-cleavage was found to be 0.21.

As for G9A G46A, the self-cleavage was 0.13.

With G8U U66G, the self-cleavage was determined as 0.13.

For G8C A64U, the self-cleavage came to 0.22.

As to G8C C40U, the self-cleavage is 0.13.

G8U C39U: the self-cleavage came out at 0.08.

On to G9A C34A, for which the self-cleavage turned out to be 0.2.

As for G9A U66A, the self-cleavage was found to be 0.11.

As for G9A U66C, the self-cleavage came to 0.24.

On to G9C U25C, for which the self-cleavage stood at 0.07.

As for G9C U31A, the self-cleavage was 0.19.

G9C U31C: the self-cleavage is 0.22.

For the variant G9A U49A, the self-cleavage is 0.19.

G9A U49C: the self-cleavage is 0.23.

In the case of G8U U80G, the self-cleavage came out at 0.2.

Consider G8U U80A, for which the self-cleavage was determined as 0.2.

G8U U80C: the self-cleavage is 0.16.

On to G9C A57U, for which the self-cleavage was 0.24.

For the variant G8C U58C, the self-cleavage came out at 0.21.

With G9A A21C, the self-cleavage turned out to be 0.06.

Consider G9A A21G, for which the self-cleavage was 0.19.

For G9U A57G, the self-cleavage turned out to be 0.25.

In the case of G9A G22C, the self-cleavage was determined as 0.32.

As for G8C A56G, the self-cleavage was found to be 0.17.

With G8U U67A, the self-cleavage is 0.19.

Consider G8U U67C, for which the self-cleavage is 0.23.

As to G8U C11U, the self-cleavage worked out at 0.1.

Regarding G9U C12U, the self-cleavage amounted to 0.2.

Take G8C A57G: the self-cleavage turned out to be 0.52.

With G9C U76C, the self-cleavage came out at 0.3.

For the variant G8A U80C, the self-cleavage amounted to 0.19.

As to G8A U80A, the self-cleavage turned out to be 0.29.

For the variant G8U C38U, the self-cleavage was 0.04.

Turning to G8C A28G, the self-cleavage turned out to be 0.22.

In the case of G8A U72G, the self-cleavage worked out at 0.12.

G8A U72A: the self-cleavage is 0.07.

Consider G8A U72C, for which the self-cleavage worked out at 0.26.

With G9C U51A, the self-cleavage is 0.09.

As for G9C C34A, the self-cleavage was found to be 0.14.
